Results from US8357701B2, “Galactokinase inhibitors” (University of Miami, priority 2007, dated 2013).

Tests used:
[1] = tested on: T1, O=C[C@H](O)[C@@H](O)[C@@H](O)[C@H](O)CO; assay: standard pyruvate kinase/lactate dehydrogenase-coupled GALK assay; type: biochemical; conditions: other: substrates of purified human GALK
T1 construct: made in house; host or cells: Escherichia coli HMS174 (DE3), plasmid pET15b
From the text: As the percentage of substrate conversion can have significant impact on the accuracy of IC50 determination, the preferred approach is to determine reaction rates at initial velocity (i.e., zero substrate conversion). […] In this assay, the amount of galactose present in the reaction is kept in excess, whereas ATP consumed by the galactokinase reaction is recycled by the pyruvate kinase reaction. As a result, the reaction rates calculated will be close to initial velocity.
As the percentage of substrate conversion can have significant impact on the accuracy of IC50 determination, the preferred approach is to determine reaction rates at initial velocity (i.e., zero substrate conversion). […] The dose response of the selected compounds was analyzed using the standard pyruvate kinase/lactate dehydrogenase-Coupled assay. In this assay, the amount of galactose present in the reaction was kept in excess, whereas ATP consumed by the galactokinase reaction was recycled by the pyruvate kinase reaction. As a result, the reaction rates calculated were close to initial velocity.

[2] = tested on: Nc1ncnc2c1ncn2[C@@H]1O[C@H](COP(=O)(O)OP(=O)(O)OP(=O)(O)O)[C@@H](O)[C@H]1O; assay: purified protein, by the assay type; conditions: other: substrates of purified human GALK

Substance: human GALK (Homo sapiens)
- Km [1]: 210 µM
- Km [2]: 42 µM
